In publication PMC7226629:

Tests used:
[1] = biological target: CCR5 (human (endogenous in SNU387, PLC/PRF-5, SK-HEP-1)) (UniProt P51681)
[2] = biological target: CCR5 (human (endogenous in SNU387, PLC/PRF-5, SK-HEP-1)) (UniProt P51681); remark: listed apart in the source

UniProt P51681, sequence (P51681 whole entry): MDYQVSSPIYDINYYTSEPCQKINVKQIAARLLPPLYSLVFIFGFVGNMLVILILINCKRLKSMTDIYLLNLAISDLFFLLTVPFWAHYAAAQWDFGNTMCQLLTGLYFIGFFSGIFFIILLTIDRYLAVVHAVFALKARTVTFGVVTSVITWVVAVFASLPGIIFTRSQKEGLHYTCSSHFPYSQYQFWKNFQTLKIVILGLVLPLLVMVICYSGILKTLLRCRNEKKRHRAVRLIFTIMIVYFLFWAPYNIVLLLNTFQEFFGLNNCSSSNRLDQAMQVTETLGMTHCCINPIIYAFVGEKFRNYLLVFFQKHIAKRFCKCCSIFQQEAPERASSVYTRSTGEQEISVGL

Akt-1 mRNA (qRT-PCR) in PLC/PRF-5 cells treated with CCL5; diminished by maraviroc [1]: 1.3 fold
Akt-1 mRNA (qRT-PCR) in SK-HEP-1 cells treated with CCL5; diminished by maraviroc [1]: 1.2 fold
E-cadherin mRNA (qRT-PCR) in PLC/PRF-5 cells after exposure to maraviroc, compared to CCL5-treated cells [1]: 0.3 fold
E-cadherin mRNA (qRT-PCR) in SK-HEP-1 cells after exposure to maraviroc, compared to CCL5-treated cells [1]: 0.8 fold
beta-catenin mRNA (qRT-PCR) in PLC/PRF-5 cells treated with CCL5; diminished by maraviroc [1]: 1.7 fold
beta-catenin mRNA (qRT-PCR) in SK-HEP-1 cells treated with CCL5; diminished by maraviroc [1]: 1.3 fold
caspase-3 mRNA (qRT-PCR) in HCC cells: down-regulated with CCL5, higher with CCL5 plus maraviroc in two of the three cell lines [2]: 0.5 fold
Substance: CCL5 recombinant protein (from UniProt P13501 24-91) (ligand)
